Measured values published in patent US20230235072A1 (DENALI THERAPEUTICS, published 2023).
Numbering of substitutions follows the chain as printed. Read-outs that look alike come from different tables or passages of the source.

Tests used:
[1] = biological target: T1, cynomolgus transferrin receptor (TfR) ectodomain (ECD) (cynomolgus, UniProt Q5RDH6 121-760 (Pongo abelii entry), biotinylated where captured on streptavidin); assay: phage ELISA: Fc variant on phage, titrated by OD268 of the phage solution on plate-coated cyno TfR; OD650
T1 construct: also called cyno TfR; cynoTfR
T1 chain: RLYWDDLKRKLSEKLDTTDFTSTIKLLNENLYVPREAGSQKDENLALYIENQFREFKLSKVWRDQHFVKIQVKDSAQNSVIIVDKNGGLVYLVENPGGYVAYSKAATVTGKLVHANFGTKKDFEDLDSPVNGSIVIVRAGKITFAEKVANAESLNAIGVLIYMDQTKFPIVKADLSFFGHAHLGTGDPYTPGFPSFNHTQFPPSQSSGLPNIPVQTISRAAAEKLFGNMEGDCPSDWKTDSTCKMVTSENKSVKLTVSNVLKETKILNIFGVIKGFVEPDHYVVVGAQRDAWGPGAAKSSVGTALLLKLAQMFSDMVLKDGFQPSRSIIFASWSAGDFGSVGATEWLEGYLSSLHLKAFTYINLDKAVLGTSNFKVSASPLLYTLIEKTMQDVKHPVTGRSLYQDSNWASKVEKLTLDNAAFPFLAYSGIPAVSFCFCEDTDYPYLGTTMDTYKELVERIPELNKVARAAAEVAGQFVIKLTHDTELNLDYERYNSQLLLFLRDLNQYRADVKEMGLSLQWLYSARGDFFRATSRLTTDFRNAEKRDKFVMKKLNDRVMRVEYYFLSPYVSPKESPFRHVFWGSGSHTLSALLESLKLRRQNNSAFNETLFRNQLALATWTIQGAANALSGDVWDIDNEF

[2] = biological target: T2, human transferrin receptor (TfR) ectodomain (ECD) (human, UniProt P02786 121-760, biotinylated where captured on streptavidin); assay: phage ELISA: phage at about its EC50 on plate-coated human TfR with soluble holo-Tf added at 0.007-5 uM; OD650
T2 construct: also called human TfR; huTfR

[3] = biological target: T1, cynomolgus transferrin receptor (TfR) …; assay: phage ELISA: Fc variant on phage, titrated by OD268 of the phage solution on plate-coated cyno TfR; OD650
[4] = biological target: T2, human transferrin receptor (TfR) …; assay: phage ELISA: Fc variant on phage, titrated by OD268 of the phage solution on plate-coated human TfR; OD650
[5] = biological target: T1, cynomolgus transferrin receptor (TfR) …; assay: phage ELISA: Fc variant on phage, titrated by OD268 of the phage solution on plate-coated cyno TfR; OD650
[6] = biological target: T1, cynomolgus transferrin receptor (TfR) …; assay: as above
[7] = biological target: T2, human transferrin receptor (TfR) …; assay: competition phage ELISA: phage-displayed clone at about its EC50 on plate-coated human TfR, soluble human TfR varied as competitor; OD650

B1: Clone CH2A2.4 (designed binder)
chain: PCPAPELLGGPSVFLFPPKPKDTLMISRTPEVTCVVVDVSHEDPEVSFEWYVDGVPVRWEWQWPREEQYNSTYRVVSVLTVLHQDWLNGKEYKCKVSNKALPAPIEKTISKAKGQPREPQVYTLPPSRDELTKNQVSLTCLVKGFYPSDIAVEWESNGQPENNYKTTPPVLDSDGSFFLYSKLTVDKSRWQQGNVFSCSVMHEALHNHYTQKSLSLSPGK
B1: binds [1]; binds [2].

B2: Clone CH2A2.5 (designed binder)
chain: B1 chain with S47A, E49T, W63N
B2: binds [3]; binds [4].

B3: Clone CH2A2.16 (designed binder)
chain: B1 chain with S47W, P56F, R58G, W59V, E60A, W61Y, Q62D, W63V
B3: no binding (tested: OD268 1 (phage solution)) [5]; binds [2].

B4: Clone CH2A2.1 (designed binder)
chain: B1 chain with S47E, E49I, P56D, W59Y, W63L
B4: binds [6]; binds [7].
